According to US8067220B2, “Alternative crystal form of monoacylglycerol lipase (MGLL)” (Janssen Pharmaceutica N.V., priority 2008, dated 2011):
Changes are numbered by the printed parent chain. Numbers in names are those of the source.

System: MGLL
Test: Michaelis-Menten kinetics, hydrolysis of 4-methylcoumarin butyrate (4MC-B)
Format: biochemical, human
Conditions: substrate 4MC-B; 4-5 nM MGLL, 20 mM Pipes pH 7, 150 mM NaCl, 37° C.; average of 2 or 4 assays
Source text: A small fluorescent substrate, 4-methyl coumarin butyrate (4MC-B) was used to compare the activity of the engineered mutants to the activity of wt-MGLL (hMGLL 1-303) (SEQ ID NO: 3). The catalytic efficiency (kcat/KM) for the hydrolysis of the 4MC-B was similar for wt-MGLL (hMGLL 1-303) (SEQ ID NO: 3) and all MGLL mutants tested (Table 2). A larger more aliphatic fluorescent substrate, Coumarin Arachidonate (C-A), structurally more closely related to the MGLL natural substrate, 2-AG, was used to compare the activity of wt-MGLL (hMGLL 1-303) (SEQ ID NO: 3) to TEV protease cleaved mut-MGLL (hMGLL 1-303 L169S, L176S) (SEQ ID NO: 5).
The Michaelis-Menten parameters for the hydrolysis of 4-methylcoumarin butyrate (4MC-B) and coumarin arachidonate (C-A) substrate were determined using 4-5 nM of MGLL in 20 mM Pipes pH 7 and 150 mM NaCl at 37° C. The change in fluorescence due to substrate hydrolysis was monitored using excitation/emission wavelengths of 335/440 in a Safire II instrument from Tecan. The hyperbolic rates versus substrate concentration curves for the hydrolysis of 4MC-B were fit to the Michaelis-Menten equation using Excel.

B1: mut-MGLL 9-297, L169S, L176S: truncated human MGLL 9-297 with L169S, L176S (protein, UniProt Q99685 9-297, looked up, variant L169S L176S)
chain: RTPQSIPYQDLPHLVNADGQYLFCRYWKPTGTPKALIFVSHGAGEHSGRYEELARMLMGLDLLVFAHDHVGHGQSEGERMVVSDFHVFVRDVLQHVDSMQKDYPGLPVFLLGHSMGGAIAILTAAERPGHFAGMVLISPLVLANPESATTFKVLAAKVLNSVLPNLSSGPIDSSVLSRNKTEVDIYNSDPLICRAGLKVCFGIQLLNAVSRVERALPKLTVPFLLLQGSADRLCDSKGAYLLMELAKSQDKTLKIYEGAYHVLHKELPEVTNSVFHEINMWVSQRTATA
- Kcat: 0.433 s⁻¹
- Km: 126 µM

B2: mut-MGLL 1-303, L169S, L176S, K36A: human MGLL 1-303 with cap mutations L169S, L176S and surface mutation K36A (protein)
chain: GMPEESSPRRTPQSIPYQDLPHLVNADGQYLFCRYWAPTGTPKALIFVSHGAGEHSGRYEELARMLMGLDLLVFAHDHVGHGQSEGERMVVSDFHVFVRDVLQHVDSMQKDYPGLPVFLLGHSMGGAIAILTAAERPGHFAGMVLISPLVLANPESATTFKVLAAKVLNSVLPNLSSGPIDSSVLSRNKTEVDIYNSDPLICRAGLKVCFGIQLLNAVSRVERALPKLTVPFLLLQGSADRLCDSKGAYLLMELAKSQDKTLKIYEGAYHVLHKELPEVTNSVFHEINMWVSQRTATAGTASPP
- Kcat: 0.85 s⁻¹
- Km: 124 µM

B3: mut-MGLL 9-303, L169S, L176S: N-terminally truncated human MGLL 9-303 with L169S, L176S (protein, UniProt Q99685 9-303, looked up, variant L169S L176S)
chain: RTPQSIPYQDLPHLVNADGQYLFCRYWKPTGTPKALIFVSHGAGEHSGRYEELARMLMGLDLLVFAHDHVGHGQSEGERMVVSDFHVFVRDVLQHVDSMQKDYPGLPVFLLGHSMGGAIAILTAAERPGHFAGMVLISPLVLANPESATTFKVLAAKVLNSVLPNLSSGPIDSSVLSRNKTEVDIYNSDPLICRAGLKVCFGIQLLNAVSRVERALPKLTVPFLLLQGSADRLCDSKGAYLLMELAKSQDKTLKIYEGAYHVLHKELPEVTNSVFHEINMWVSQRTATAGTASPP
- Kcat: 0.45 s⁻¹
- Km: 88 µM

B4: mut-MGLL 1-303, L171Q: human MGLL 1-303 with cap-domain mutation L171Q (protein, UniProt Q99685 1-303, looked up, variant L171Q)
Monoglyceride lipase: MPEESSPRRTPQSIPYQDLPHLVNADGQYLFCRYWKPTGTPKALIFVSHGAGEHSGRYEELARMLMGLDLLVFAHDHVGHGQSEGERMVVSDFHVFVRDVLQHVDSMQKDYPGLPVFLLGHSMGGAIAILTAAERPGHFAGMVLISPLVLANPESATTFKVLAAKVLNLVQPNLSLGPIDSSVLSRNKTEVDIYNSDPLICRAGLKVCFGIQLLNAVSRVERALPKLTVPFLLLQGSADRLCDSKGAYLLMELAKSQDKTLKIYEGAYHVLHKELPEVTNSVFHEINMWVSQRTATAGTASPP
- Kcat: 0.85 s⁻¹
- Km: 105 µM

B5: mut-MGLL 1-303, L171Q, L174Q: human MGLL 1-303 with cap-domain mutations L171Q, L174Q (protein, UniProt Q99685 1-303, looked up, variant L171Q L174Q)
Monoglyceride lipase: B4 Monoglyceride lipase with L174Q
- Kcat: 0.783 s⁻¹
- Km: 89 µM

B6: mut-MGLL.1-303, L169S, L176S, K165A: human MGLL 1-303 with L169S, L176S and surface mutation K165A (protein)
chain: B4 Monoglyceride lipase with K165A, L169S, Q171L, L176S
- Kcat: 0.45 s⁻¹
- Km: 137 µM

B7: mut-MGLL.1-303, L169S, L176S, K160A: human MGLL 1-303 with L169S, L176S and surface mutation K160A (protein)
chain: B4 Monoglyceride lipase with K160A, L169S, Q171L, L176S
- Kcat: 0.5 s⁻¹
- Km: 90 µM

B8: mut-MGLL 1-303, L169S, L176S, K36A, K226A: human MGLL 1-303 with L169S, L176S and surface mutations K36A, K226A (protein)
chain: B4 Monoglyceride lipase with K36A, L169S, Q171L, L176S, K226A
- Kcat: 0.5 s⁻¹
- Km: 123 µM

B9: mut-MGLL 1-303, L169S, L176S, K226A: human MGLL 1-303 with L169S, L176S and surface mutation K226A (protein)
chain: B4 Monoglyceride lipase with L169S, Q171L, L176S, K226A
- Kcat: 0.633 s⁻¹
- Km: 110 µM

B10: mut-MGLL 1-303, L167Q, L171Q: human MGLL 1-303 with cap-domain mutations L167Q, L171Q (protein, UniProt Q99685 1-303, looked up, variant L167Q L171Q)
Monoglyceride lipase: B4 Monoglyceride lipase with L167Q
- Kcat: 0.983 s⁻¹
- Km: 84 µM

B11: mut-MGLL. 1-303, L167Q, L174Q: human MGLL 1-303 with cap-domain mutations L167Q, L174Q (protein, UniProt Q99685 1-303, looked up, variant L167Q L174Q)
Monoglyceride lipase: B4 Monoglyceride lipase with L167Q, Q171L, L174Q
- Kcat: 1.17 s⁻¹
- Km: 84 µM
